Results taken from patent publication US20220218614A1, “IONIZABLE CATIONIC LIPIDS AND LIPID NANOPARTICLES, AND METHODS OF SYNTHESIS AND USE THEREOF” (Tidal Therapeutics, Inc., priority 2020, published 2022).

B1: TRX2 ScFv: anti-CD8 TRX2 ScFv, SEQ ID NO: 98 (protein)
scFv: QVQLVESGGGVVQPGRSLRLSCAASGFTFSDFGMNWVRQAPGKGLEWVALIYYDGSNKFYADSVKGRFTISRDNSKNTLYLQMNSLRAEDTAVYYCAKPHYDGYYHFFDSWGQGTLVTVSSGGGGSGGGGSGGGGSGGGGSDIQMTQSPSSLSASVGDRVTITCKGSQDINNYLAWYQQKPGKAPKLLIYNTDILHTGVPSRFSGSGSGTDFTFTISSLQPEDIATYYCYQYNNGYTFGQGTKVEIKGGGSGGCGGHHHHHH
B2: V1: anti-CD7 Nanobody, SEQ ID NO: 80 (protein)
VHH: DVQLQESGGGLVQAGGSLRLSCAVSGYPYSSYCMGWFRQAPGKEREGVAAIDSDGRTRYADSVKGRFTISQDNAKNTLYLQMNRMKPEDTAMYYCAARFGPMGCVDLSTLSFGHWGQGTQVTVSITGGGCHHHHHHHH
B3: 12D2: anti-CD3 12D2 bDS Fab, SEQ ID NO: 84 and 85 (antibody)
heavy: EVKLVESGGGLVQPGRSLRLSCAASGFNFYAYWMGWVRQAPGKGLEWIGEIKKDGTTINYTPSLKDRFTISRDNAQNTLYLQMTKLGSEDTALYYCAREERDGYFDYWGQGVMVTVSSASTKGPSVFPLAPSSKSTSGGTAALGCLVKDYFPEPVTVSWNSGALTSGVHTCPAVLQSSGLYSLSSVVTVPSSSLGTQTYICNVNHKPSNTKVDKKVEPKSSDKTHTCGGHHHHHH
light: QFVLTQPNSVSTNLGSTVKLSCKRSTGNIGSNYVNWYQQHEGRSPTTMIYRDDKRPDGVPDRFSGSIDRSSNSALLTINNVQTEDEADYFCQSYSSGIVFGGGTKLTVLSQPKAAPSVTLFPPSSEELQANKATLVCLVSDFYPGAVTVAWKADGSPVKVGVETTKPSKQSNNKYAACSYLSLTPEQWKSHRSYSCRVTHEGSTVEKTVAPAESS
B4: OKT4: anti-CD4 humanized OKT4 bDS Fab, SEQ ID NO: 74 and 75 (antibody)
heavy: EVQLVESGGGLVQPGGSLRLSCAASGFTFSNYAMSWVRQAPGKRLEWVSAISDHSTNTYYPDSVKGRFTISRDNAKNTLYLQMNSLRAEDTAVYYCARKYGGDYDPFDYWGQGTLVTVSSASTKGPSVFPLAPSSKSTSGGTAALGCLVKDYFPEPVTVSWNSGALTSGVHTCPAVLQSSGLYSLSSVVTVPSSSLGTQTYICNVNHKPSNTKVDKKVEPKSSDKTHTCHHHHHH
light: DIQMTQSPSSLSASVGDRVTITCQASQDINNYIAWYQHKPGKGPKLLIHYTSTLQPGIPSRFSGSGSGRDYTLTISSLQPEDFATYYCLQYDNLLFTFGGGTKVEIKRTVAAPSVFIFPPSDEQLKSGTASVVCLLNNFYPREAKVQWKVDNALQSGNSQESVTEQDSKDSTYSLCSTLTLSKADYEKHKVYACEVTHQGLSSPVTKSFNRGES
B5: Lorvotuzumab: anti-CD56 Lorvotuzumab Fab bDS, SEQ ID NO: 32 and 33 (antibody)
heavy: QVQLVESGGGVVQPGRSLRLSCAASGFTFSSFGMHWVRQAPGKGLEWVAYISSGSFTIYYADSVKGRFTISRDNSKNTLYLQMNSLRAEDTAVYYCARMRKGYAMDYWGQGTLVTVSSASTKGPSVFPLAPSSKSTSGGTAALGCLVKDYFPEPVTVSWNSGALTSGVHTCPAVLQSSGLYSLSSVVTVPSSSLGTQTYICNVNHKPSNTKVDKKVEPKSSDKTHTCHHHHHH
light: DVVMTQSPLSLPVTLGQPASISCRSSQIIIHSDGNTYLEWFQQRPGQSPRRLIYKVSNRFSGVPDRFSGSGSGTDFTLKISRVEAEDVGVYYCFQGSHVPHTFGQGTKVEIKRTVAAPSVFIFPPSDEQLKSGTASVVCLLNNFYPREAKVQWKVDNALQSGNSQESVTEQDSKDSTYSLCSTLTLSKADYEKHKVYACEVTHQGLSSPVTKSFNRGES
B6: A3: anti-CD56 A3 Fab bDS, SEQ ID NO: 30 and 31 (antibody)
heavy: EVQLVQSGAEVKKPGSSVKVSCKASGGTFTGYYMHWVRQAPGQGLEWMGWINPNSGGTNYAQKFQGRVTMTRDTSISTAYMELSRLRSDDTAVYYCARDLSSGYSGYFDYWGQGTLVTVSSASTKGPSVFPLAPSSKSTSGGTAALGCLVKDYFPEPVTVSWNSGALTSGVHTCPAVLQSSGLYSLSSVVTVPSSSLGTQTYICNVNHKPSNTKVDKKVEPKSSDKTHTCGGHHHHHH
light: DVVMTQSPLSLPVTPGEPASISCRSSQSLLHSNGYNFLDWYLQKPGQSPQLLIYLGSNRASGVPDRFSGSGSGTDFTLKISRVEADDVGVYYCMQSLQTPWTFGHGTKVEIKRTVAAPSVFIFPPSDEQLKSGTASVVCLLNNFYPREAKVQWKVDNALQSGNSQESVTEQDSKDSTYSLCSTLTLSKADYEKHKVYACEVTHQGLSSPVTKSFNRGES

Test system: human CD3 T cells
Assay: Transfection of human CD3 T cells (CD8 and CD4 subsets) with Fab/Nb-targeted LNPs
Assay type: cell-based
Settings: targeted Lipid 8 LNP (Lipid 5 in Example 43), GFP mRNA approximately 2.5 μg/mL, approximately 24 hr
Description: LNPs were prepared using the mixing process described in Example 6, the buffer exchange process described below in Example 21. Using methods similar to Example 12, hSP34 and TRX2 Fab-lipid conjugates and a non-T cell specific anti-HER2 lipid-conjugate (Nellis D F, Ekstrom D L, Kirpotin D B, Zhu J, Andersson R, Broadt T L, Ouellette T F, Perkins S C, Roach J M, Drummond D C, Hong K, Marks J D, Park J W and Giardina S L (2005) Preclinical manufacture of an anti-HER2 scFv-PEG-DSPE, liposome-inserting conjugate. 1. Gram-scale production and purification. Biotechnol Prog 21:205-220) were post-inserted at various densities (SP34 0.25-17 g/mol; TRX2 0.25-9 g/mol; SP34+TRX2 0.25-9 g/mol each conjugate; anti-HER2 17 g/mol) into LNPs containing Lipid 8 and anti-CD20 targeting CART mRNA. Transfections were performed with human CD3 T cells at approximately 2.5 μg/mL mRNA for approximately 24 hr. For FACS analysis T cells were stained with M1 antibody (Sigma, F3040) that bind a N-terminus FLAG-tag variant sequence on the TTR-023 CAR (sequence provided below) in addition to staining for CD69 (Biolegend, 310930) and CD4 (Biolegend, 344648) to differentiate CD8 from CD4 cells.
LNPs were prepared using the mixing process described in Example 6, the buffer exchange process described in Example 21. Using methods similar to Example 12, hSP34, TRX2, and Ibalizumab Fab-lipid conjugates and a non-T cell specific anti-HER2 lipid-conjugate were post-inserted at various densities (specified in FIGS. 20A and 20B into LNPs containing Lipid 8 and Cy5/GFP mRNA. Transfections were performed with human CD3 T cells at approximately 2.5 μg/mL mRNA for approximately 24 hr and stained for CD69 (Biolegend, 310930) and CD4 (Biolegend, 344648) to differentiate CD8 from CD4 cells by FACS analysis.
LNPs were prepared using the mixing process described in Example 6, the buffer exchange process described in Example 21. Conjugates were generated using a method similar to that of Example 4 except 0.025, 0.1, 0.5 mM TCEP was used for hSP34 DS, 0.025, 0.2, 2 mM TCEP was used for hSP34-hlam NoDS (interchain disulfide knockout) for reduction prior to conjugation and the conjugation reactions were performed at 37 C for 2 hr. SDS-PAGE (FIGS. 65A, 65B) was performed using the manufacturers recommended conditions with 1 ug of protein (Thermo, 4-12% Bis-Tris MiniGel). RP-HPLC (FIGS. 65C, 65D) was performed using an Agilent 300 SB-C8 at 0.5 mL/min with a column temperature of 60° C., Mobile Phase A: Water with 0.1% TFA, Mobile Phase B: Acetonitrile with 0.1% TFA, Gradient % B: 0 min 5%, 1 min 5%, 6.5 min 95%, 8 min 95% injecting 10 ul with a target of 1-25 ug of protein. Using methods similar to Example 12, ant-CD3 hSP34 (with and without natural interchain disulfide, DS (with interchain disulfide) vs. NoDS (without interchain disulfide), see sequences below) PEG-lipid conjugated Fabs were post-inserted at various Fab densities (6, 12, 17 g Fab/mol total lipid) into LNPs containing Lipid 8 and Cy5/GFP mRNA. Transfections were performed with human CD3 T cells at approximately 2.5 μg/mL mRNA for approximately 24 hr. Levels of transfection of CD3 T cells was measured by flow cytometry.
LNPs were prepared using the mixing process described in Example 6, the buffer exchange process described in Example 21. Conjugates were generated using a method similar to that of Example 4 except 0.1 mM TCEP was used for reduction prior to conjugation and the conjugation reaction was performed at 37 C for 2 hr. […]

Row | Molecule | % GFP transfection and GFP expression (MFI) of CD8 and CD4 T cells, in words
1 | B1 | slightly lower % transfection (FIG. 82A) and GFP expression levels (FIG. 82B) in the CD8 T cell subset relative to the anti-CD8 TRX2 NoDS Fab
2 | B2 | 3.4K PEG mediated higher transfection and expression than the 5K PEG
3 | B3 | can efficiently transfect both CD8 and CD4 T cell subsets
4 | B4 | highly specific LNP transfection and protein translation of CD4+ T cells versus CD8+ T cells

Test system: primary human NK cells
Assay: LNP transfection of co-cultured human T cells and NK cells: NK cells
Assay type: cell-based
Settings: Lipid 8 LNP, 2.5 ug/mL mRNA, 24 hours
Description: CD3-depleted PBMCs were purified using magnetic-based CD3 positive selection and retaining of the negative fraction. 20 million CD3 depleted PBMCs were added to 1 well of a 6 well GREX plate in media containing 10 ng/mL IL-15 for 7 days. On day 7, each well was split in 2 and cells were cultured further in media containing 10 ng/mL IL-15 for an additional 7 days. On day 14, NK cells were concentrated to 1 million cells/mL in preparation for co-transfection with primary human T cells.
LNPs were prepared using the mixing process described in Example 6, the buffer exchange process described in Example 25. The LNPs were formulated using eGFP encoding mRNA (TriLink Biotechnologies, California, US), Lipid 8 as the ionizable lipid, and labeled with 0.01 mol % DiIC18(5)-DS (Invitrogen, Massachusetts, US). Fab-lipid conjugates generated from methods described in Example 4 while generation of Nb-conjugated differed in using 1:1:4 Nb:DSPE-SKPEG-maileimide:DSPE-2KPEG-OCH3 and a 50 kD UF membrane (Millipore Corp, Billerica, Mass. USA) for separation of Nb-conjugate from free Nb. Using methods similar to Example 12, conjugated Fabs and conjugated Nb were post-inserted at various densities (Table 41) into LNPs containing Lipid 8 and GFP mRNA with DiI dye. […]. […]
24 hours after LNP transfection, cell culture media was aspirated from T cell and NK cell co-cultures after centrifugation. […] Following acquisition by flow cytometry, T cells and NK cells were analyzed independently using FlowJo (flow cytometry analysis software). In either CD3+ cells (T cells) or CD56+ cells (NK cells), the frequency of GFP positive events relative to GFP negative events was calculated (FIG. 64A). Additionally, the overall fluorescence of GFP was quantified by assessment of mean fluorescence intensity (MFI, FIG. 64B). […] Together, these metrics enabled quantification of LNP transfection efficiency of all targeted LNPs tested in primary human T cell and NK cell co-cultures.

Row | Molecule | transfection of NK cells in T/NK co-culture (% GFP, GFP MFI, DiI), in words
5 | B5 | highly specific transfection of NK cells
6 | B6 | highly specific transfection of NK cells
